Measured values published in the nanobody polyreactivity screen of Harvey et al. (2022).

Test: yeast display, Sf9 membrane polyspecificity reagent, FACS + sequencing; frameworks hold sequencing errors
Procedure, shortened: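 After 36–48 hours of galactose induction, yeast (Saccharomyces cerevisiae BJ5465) displaying a synthetic nanobody library were stained at 4 °C for 1 hour with 10% biotinylated, detergent-solubilized Sf9 membrane reagent. Streptavidin microbeads enriched the stained cells before FACS sorting into low and high (top ~1%) gates on anti-HA and streptavidin fluorescence. Each clone's polyreactivity label reflects its gate of origin.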

Row | Sequence | polyreactivity (PSR sort gate)
1 | QVQLVESGGGLVQAGGSLRLSCAASGSTFFTNAMGWYRQAPGKERELVAAITINDGSTFYADSVKGRFTITRDNAKNTVYLQMNSLKPEDTAVYYCNADGVDLYDYWGQGTQVTVSS | low polyreactivity
2 | QVQLVESGGGLVQAGGSLRLSCAASGSIFPVYAMGWYRQAPGKERELVATIRSGGARTYYADSVKGRFTISRDNAKNTVYLQMNSLKPEDTAVYYCAVDQSRWQARYYYWGQGTQVTVSS | high polyreactivity
3 | QVQLVESGGGIVQAGGSLRLSSAASGFIFARYAMGWYRQAPGKERELVAAISSGGRTYYADSVKGRFTISRDNAKNTVYLQMNSLKPEDTAVYYCAADPASSYGKYSYYYWGQGTQVTVSS | high polyreactivity
4 | QVQLVESGGGLVQAGGSLRLSCAASGRIFQGYAMGWYRPAPGKERELGASIRTGGTTNYADSVKGRFTISRDNAKNTVYLQMNSLTPEDTAVYYCAKRYYGWYGNFDYWGQGTQVTVSA | high polyreactivity
5 | QVQLVESGGGLVQAGGSLRLSCAASGFIFLYYAMGWYRQAPGKERELVPYISRGADTKYADSVKGRFTISRDNAKNTVYLQMNSLKPEDTAVYYCATDITTFWFPYPGVELGYWGQGTQVTVAS | low polyreactivity
6 | QVQLVESGGGLVQAGGSLRLSCDASGSSFDYYARGWYRQAPGTERELVAAITSTGRTYYADSVKGRFTISRDNAKNTVYLQMNSLKPDDTAVYYCAADQPWGPLFDYWGQGTQVTVSS | low polyreactivity
7 | QVQLVESGGGLVQAGGSLRLSCAASGSTFDYYALGWYRQAPGKETELVAAISRSGVRTYYADSVKGRFTISRDNAKNTVYLQMNSLKPEDTAVYYCAAQVIPKFDWGQGTQVTVSS | high polyreactivity
8 | QVQLVKSGGGLVQAGGSLRLSCAASGSTFYNDMGGYIHSPGKEIELVAAISIGGSTYYADSVKGRFTISRDNANHTVYLQMSCLKPEDTAVYYCAAVWYTSRQKYDYWGQGTQVTVTS | low polyreactivity
9 | QVQLVESGGGLVQAGGSLRLSCAASGRIFYYYAMLWYRQAPGKERELVAAIRRGGSTNYADSVKGRFTISRDNAKNTVYLQMNSLKPEETAVYYCAARSARLEYYYWGQGTQVTVSS | high polyreactivity
10 | QVQLVESGGGLVQAGGSLRLSCAASGRIFWYNAMGWYRQAPGKERELVAAISSGGSTSYADSVKGRFTISRDNAKNTVYLQMNSLKPEDTAVYYCAKDDERKQGQYPPYDSWGQGTQVTVSS | low polyreactivity
11 | QVQLVESGGGLVQAGGSLRLSCAASGRTIGGNAMGRYRQAPGKERELVAAISWSGGRTYYADSVKGRFTISRDNAKNTVYLQMNSLKPEDTAVYYCNKVGYGFHGDYDYWGQGTQVTVSS | high polyreactivity
12 | QVQLVESGGGLVQAGGSLRLSCAASGITFVPYVMGWYRQAPGKERELVAAITVRGSRTYYADSVKGRFTISRDNAKNTVYLQMNSLKPEDTAVYYCAAGRYLSRTFFTYYYWGQGTQVTVSS | high polyreactivity
13 | QVQLVESGGGLVQAGCSLRLSCAASGNTFGYYAMGWYRQAPGKERELVAAITSSGGRTYYADSVKGRFTISRDNAKNTVYLQMNSLKPEDTAVYYCAAGRVGARYPTYRFYYWGQGTLVTVSS | high polyreactivity
14 | QVQLVESGGGLVQAGGSLRLSCAASGSIFVNYAMGWSRQAPGKERELVAAISRDGGRTYYADSVKGRFTISRDNAKNTVYLQMNSLKPEDTAVYYCNAVIPSTAYYRYGYWGQGTQVTVSS | high polyreactivity
15 | QVQLVESGGGLVQAGGSLRLSCAASGFIFQRYAMGWYRQAPGKERELVAAITKSGGSTYYADSVKGRYTISRDNAKNTVYLQMNSLKPEDTAVYYCNAYRYGSYRPHQEDYDYWGQGTQVTVSS | high polyreactivity
16 | QVQLVESGGGLVQAGGSLRLSCAASGFIFDTYAMGWYRQAPGKERELVAAISRSGVRTYYADSVKGRFTISRDNAKNTVYLQMNSLTPEDTAVYYCNAALNRYHFGRAVPGDYWGQGTQVTVSS | high polyreactivity

Row | Sequence | polyreactivity (PSR sort gate)
17 | QVQLVESGGGLVQAGGSLRLSCAASGRTFGYYAMGWYRQAPGKEREFVAAISSSGGSTYYADSVKGRFTISRDNAKNTVYLQMNSLKPEDTAVYYCAARRNYFYGYYYWGQGTQVTVSS | high polyreactivity
18 | QVQLVESGGGLVQAGGSLRLSCAASGSIFSRIAMGWYRKAPGKERELVAAISGRGGSTYYADSVKGRFTISRDNAKNTVYLHMKSLKPEDTAVYYCAKAVNYRLSQAMDYWGQGTQVTVSS | high polyreactivity
19 | QVQLVESGGGLVQAGGSLRLSCAASGRTFIYNTMGWYRQAPGKERELVAAITSGGSTNYADSVKGRFTISRDNAKNTVYLQMNSLKPEDTAVYYCATQGLSAPFDGFVNSRFDHWGQGTQVTVSS | low polyreactivity
20 | QVQLVESGGGLVQAGGSLRLSCAASGFIFYDYAMGWYRQAPGKERELVAAITVDGGTTYYADSVKGRFTISRDNAKNTVYLQMNSLKPEDTAVYYCAADTYYGFDSNYEYCGQGTQVTVSS | low polyreactivity
21 | QVQLEESGGCLVQAGGSLRLSCAASGSIFRHNVMGWYRPAPGKERELVAAISGGGGRTYYADSVKGRFTISRDNAKNTVYLQMNSQKPEDTAVYYCNAVGPGLYQGDSTDSRYNYWGQGTQVTVSS | high polyreactivity
22 | QVQLVESGGGLVQAGGSLRLSCAASGNTFNVYAMGWYRQAPGKERELVAAITLSGGSTYYADSVKGRFTISRDNAKNTVYLQMNSLKPEDTAVYYCNAEEVGTDYDYWGQGTQVTVSS | low polyreactivity
23 | QVQLVESGGGLVQAGGSLRLSCAASGGTFTHNAMGWYRQAPGKERELVAAISSSGVRTYYADSVKGRFTISRDNAKNTVYLQMNSLKPEDTAVYYCAADRFRRLHYWTYDYWGQGTQVTVSS | high polyreactivity
24 | QVQLVESGGGLVQAGGSLRLSCASSGRIFDGNAMGWYRQAPGKERELVAAISWTGGSTYYADSVKGRFTISRDNAKNTVYLQMYSLKPVDTAVYYCAADSGWWLDQWSWYDYWGLGTQVTVSS | low polyreactivity
25 | QVQLVESGGGLVQAGGSLRLSCAASGRTFLRYAMGWSRQAPGTETELVAAISSDGSTNYADSVKGRFTISRDNAKNTVYLQMNSLKPEDTAVYYCDADPQKWYTGYDYWGQGTQVTVSS | low polyreactivity
26 | QVQLVESGGGLVQAGGSLRLSCAASGYIFPTYAMGWYRQEPGKERELVAAISISGGDTYYADSVKGRFTISRDNAKNTVYLQMNSLKPEDTAVYYCAAVKYETYRYNYDYWGQGTQVTVSS | high polyreactivity
27 | QVQLVESGGGLVQAGGSLRLSCAASGSIFVNYAMGWYRQAPGKERELVAAITDGGRTYYADSVKGRFTISRDNAKNTVYLQMNSLKPEDTAVYYCAVDGIRYWGSRDESGYDYWGQGTQVTVSS | low polyreactivity
28 | QVQLIESGGGLVKAGGSLRLSCAASGSIFYRNTMGWYRQAPGKERELVARISWSGGRTYYADSVKGRFTISRDNAKNTVYLQMNSLKPEDTAVYYCAASTYGQRGTSYGYWGQGTQVTVSS | low polyreactivity
29 | QVQLVESGGGLVQAGGSLRLSCAASGIIMRKYAMGWYRQAPGKERELVAAITTRGSRTYYADSVKGRFTISRDNAKNTVYLQMNSLKPEDTAVYYCAADRYTVRMDYWGQGTQVTVSS | high polyreactivity
30 | QVQLVESGGGLVQAGGSLRLSCAASGLIFSDYAMGWYRQEPGKERELVAAIRSGGRTYYADSVKGRFTISRDNAKNTVYLQMNSLKPEDTAVYYCNKLYRRYPVPREYDYWGQGTQVTVSS | high polyreactivity
31 | QVQLVESGGGLVQAGGSLRLSCAASGGIFRGYAMGWYRQAPGKERELVAAISSRDGRTYYADSVKGRFTISRDNEKNTVYLQMNSLKPEDTAVYYCAASSFNNGHRYDYWGQGTQVTVSS | high polyreactivity
32 | QVQLVESGGGLVQAGGSLRLSCAASGRTFGVYAMGWYRQAPGKERELVAAITGRGGSTYYADSVKGRFTISRDNAKNTVYLQMNSLKAEDTALYYCNAELYEYQSWDDYWGQGTQVTVSS | low polyreactivity
